Assay results taken from patent US9364516B2, “Treatment of fibrosis-related disorders using fibronectin binding proteins and polypeptides” (priority 2010, dated 2016).

How the values were obtained:
human saphenous veins = assay: Ex vivo cultured human saphenous veins, intimal thickening; details: 10× higher levels than 100-500 nM
Procedure: Saphenous veins were cut into 0.5 cm segments, and processed immediately (●) or cultured in 10% FBS/M199 containing 15 μM control III-11c peptide (▪) or pUR4 (▴) at 37° C. for 14 days. Veins were fixed, paraffin embedded, sectioned, and stained. Morphometric analysis was performed on six randomly chosen sections using Image-Pro Plus software. The intima/media ratio was determined by dividing intima area by media area. Paired student t-test was used to analyze the data. Data are expressed as mean±S.E.M. *p<0.05.
Human saphenous veins cultured in serum containing media develop intimal hyperplasia after 14 days in culture (Soyombo et al., “Intimal Proliferation in an Organ Culture of Human Saphenous Vein,” Am J Pathol. 137(6):1401-1410 (1990); Angelini et al., “Smooth Muscle Cell Proliferation in Response to Injury in an Organ Culture of Human Saphenous Vein,” Eur J Vasc Surg. 5(1):5-12 (1991); and Slomp et al., “Nature and Origin of the Neointima in Whole Vessel Wall Organ Culture of the Human Saphenous Vein,” Virchows Arch. 428(1):59-67 (1996), which are hereby incorporated by reference in their entirety). This system thus provides an ex vivo model system for studying mechanisms that lead to intimal hyperplasia that has distinct advantages over in vitro culture systems. […]

[1] = target: fibronectin-collagen interactions (Homo sapiens, UniProt P02751); assay: Blocking of fibronectin-collagen interactions in cell culture; type: cell-based; details: cell culture experiments
Sequence of fibronectin-collagen interactions (P02751 32-2477): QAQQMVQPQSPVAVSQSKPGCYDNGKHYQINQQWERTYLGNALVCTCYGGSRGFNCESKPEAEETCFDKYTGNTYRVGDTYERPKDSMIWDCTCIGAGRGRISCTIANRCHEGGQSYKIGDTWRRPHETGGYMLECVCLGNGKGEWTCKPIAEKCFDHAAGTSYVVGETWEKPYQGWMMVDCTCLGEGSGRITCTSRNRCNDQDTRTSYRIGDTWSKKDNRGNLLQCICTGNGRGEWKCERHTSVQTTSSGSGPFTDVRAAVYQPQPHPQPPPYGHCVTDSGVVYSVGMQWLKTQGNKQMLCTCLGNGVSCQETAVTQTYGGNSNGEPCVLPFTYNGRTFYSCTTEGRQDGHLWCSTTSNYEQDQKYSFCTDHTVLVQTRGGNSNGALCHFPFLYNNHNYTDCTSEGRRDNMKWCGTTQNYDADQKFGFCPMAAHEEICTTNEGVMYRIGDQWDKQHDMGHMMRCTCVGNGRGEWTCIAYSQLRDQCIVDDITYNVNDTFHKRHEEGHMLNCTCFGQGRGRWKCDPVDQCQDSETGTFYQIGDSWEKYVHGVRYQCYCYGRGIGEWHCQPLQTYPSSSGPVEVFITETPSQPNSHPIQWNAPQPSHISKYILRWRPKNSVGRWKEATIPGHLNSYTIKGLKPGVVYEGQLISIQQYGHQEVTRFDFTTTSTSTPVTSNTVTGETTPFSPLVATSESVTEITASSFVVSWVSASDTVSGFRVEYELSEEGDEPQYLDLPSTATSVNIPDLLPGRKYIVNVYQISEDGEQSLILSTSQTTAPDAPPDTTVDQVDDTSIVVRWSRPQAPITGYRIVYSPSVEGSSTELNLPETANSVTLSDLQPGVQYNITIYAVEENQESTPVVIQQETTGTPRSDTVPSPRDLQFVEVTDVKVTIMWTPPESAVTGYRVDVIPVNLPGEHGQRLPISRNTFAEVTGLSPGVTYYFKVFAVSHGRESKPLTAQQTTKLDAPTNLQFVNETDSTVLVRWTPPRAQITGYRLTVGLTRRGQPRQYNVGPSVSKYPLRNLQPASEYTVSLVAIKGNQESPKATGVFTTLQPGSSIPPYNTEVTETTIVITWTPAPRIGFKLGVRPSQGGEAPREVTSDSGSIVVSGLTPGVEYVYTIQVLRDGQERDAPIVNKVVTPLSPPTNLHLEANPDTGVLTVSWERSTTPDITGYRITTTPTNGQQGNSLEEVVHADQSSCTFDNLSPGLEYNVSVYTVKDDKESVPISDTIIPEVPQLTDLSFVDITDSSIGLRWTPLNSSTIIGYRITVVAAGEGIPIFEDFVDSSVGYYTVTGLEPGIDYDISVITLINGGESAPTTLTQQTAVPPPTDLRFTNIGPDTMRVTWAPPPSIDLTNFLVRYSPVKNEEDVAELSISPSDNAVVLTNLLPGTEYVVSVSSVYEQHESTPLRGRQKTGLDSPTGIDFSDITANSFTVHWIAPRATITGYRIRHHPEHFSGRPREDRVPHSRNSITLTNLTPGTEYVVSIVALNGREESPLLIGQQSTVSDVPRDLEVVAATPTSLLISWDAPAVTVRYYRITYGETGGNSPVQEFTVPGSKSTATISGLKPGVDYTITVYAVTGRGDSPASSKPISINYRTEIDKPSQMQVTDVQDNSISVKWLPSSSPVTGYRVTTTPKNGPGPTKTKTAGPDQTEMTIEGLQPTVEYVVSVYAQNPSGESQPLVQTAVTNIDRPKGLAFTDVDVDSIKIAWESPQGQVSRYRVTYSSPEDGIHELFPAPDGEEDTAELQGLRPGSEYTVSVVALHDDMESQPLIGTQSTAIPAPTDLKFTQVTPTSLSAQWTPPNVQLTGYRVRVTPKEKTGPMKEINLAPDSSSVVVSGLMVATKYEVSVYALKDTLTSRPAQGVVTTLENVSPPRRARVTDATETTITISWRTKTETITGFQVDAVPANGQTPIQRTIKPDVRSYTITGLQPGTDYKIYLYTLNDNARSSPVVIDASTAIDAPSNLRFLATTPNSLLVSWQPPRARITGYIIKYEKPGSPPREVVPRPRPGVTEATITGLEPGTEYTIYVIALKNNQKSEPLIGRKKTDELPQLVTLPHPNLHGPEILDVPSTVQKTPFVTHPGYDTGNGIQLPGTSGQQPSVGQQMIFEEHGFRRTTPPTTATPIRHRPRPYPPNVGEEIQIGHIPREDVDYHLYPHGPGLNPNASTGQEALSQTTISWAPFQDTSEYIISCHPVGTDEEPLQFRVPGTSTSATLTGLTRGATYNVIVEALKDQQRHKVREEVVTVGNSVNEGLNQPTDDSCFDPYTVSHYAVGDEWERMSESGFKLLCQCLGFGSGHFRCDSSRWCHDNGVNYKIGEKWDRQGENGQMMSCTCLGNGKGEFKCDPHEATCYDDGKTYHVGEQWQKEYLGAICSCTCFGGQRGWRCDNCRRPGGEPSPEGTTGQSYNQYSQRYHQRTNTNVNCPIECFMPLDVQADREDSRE

B1: R1R2: class II bacterial adhesin derived peptide (SEQ ID NO: 4) that interferes with fibronectin-collagen binding (peptide)
chain: HHHHHHGSGLNGENQKEPEQGERGEAGPPLSGLSGNNQGRPSLPGLNGENQKEPEQGERGEAGPPKSN
modifications: Bacterial adhesin derived peptide R1R2
- intimal hyperplasia (human saphenous veins): attenuate
- concentrations effective at blocking fibronectin-collagen interactions [1]: 100 to 500 nM
